What all share (assay): native MS
The target of assay [1] is SILu Lite SigmaMAb universal antibody standard human (MSQC4) (human).
Assay [2] has the same target. The source holds these as a separate data set.
For assay [3] the target is unchanged. This is another data set of the same source.
Assay [4] addresses NISTmAb, recombinant humanized monoclonal IgG1 antibody (not stated | human (humanized antibody)).

Drawing on publication PMC7906288, this text covers stoichiometry N for two substances.

Where two headings read alike, the source gives them in different places.

For the substance “SILu Lite SigmaMAb universal antibody standard human (MSQC4)”, the stoichiometry N in assay [1], in assay [2] and in assay [3] was 2 each time.

Turning to “NISTmAb, recombinant humanized monoclonal IgG1 antibody”, the stoichiometry N – broadly, a count of units in the complex or per binding partner – in assay [4] is 2.
